Experimental data as given in patent US20250221936A1, “ENGINEERED HEMICHANNELS, ENGINEERED VESICLES, AND USES THEREOF” (VIRGINIA TECH INTELLECTUAL PROPERTIES, INC., priority 2018, published 2025).
Entries after “also recorded” stand apart in the source; their conditions may differ.

Columns and labels:
ZO-1 PDZ2 = target: T1, ZO-1 PDZ2 (Homo sapiens, UniProt Q07157); assay: Protein thermal shift assay, ZO-1 PDZ2; type: binding; conditions: 500 μg/ml protein, 25-100 μM peptide
T1 construct: the second of the three PDZ (PDZ2) domains of ZO-1; made in house; host or cells: E. coli BL21
T1 sequence (Q07157 186-264 limits assumed): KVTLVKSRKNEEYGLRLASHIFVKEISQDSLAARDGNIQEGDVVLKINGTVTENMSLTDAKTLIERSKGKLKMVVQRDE
Description: Thermal stability of recombinant GST-PDZ2 or Cx43 CT in the presence or absence of peptides was determined in a 96-well format. Each assay well was composed of 500 μg/ml protein, 25-100 μM of each peptide in PBS buffer, pH7.4. All assays were performed independently six times. Samples were generally prepared in 96-well plates at final volumes of 20 μL. The fluorescent dye SYPRO Orange (5000× concentrate in DMSO, ThermoFisher, S6650) was added to a final concentration of 8X. Reactions were run on QuantStudio 6 Flex Real-Time PCR system (Applied Biosystems, part of Life Technologies Corporation, CA) according to the manufacturer's recommendations using a melt protocol in 0.05-degree/see increments from 25° C. to 95° C. The Reporter Dye was “ROX” and quencher Dye and passive reference were selected as “None” for the melt curve according to manufacturer's instructions. The data were analyzed using Protein Thermal Shift™ Software v1.3 package (Applied Biosystems, CA).

[1] = target: T2, PKC-ε phosphorylation of Cx43-CT substrate at Ser368 (Rattus norvegicus, UniProt P08050); assay: PKC-ε Cx43 CT S368 phosphorylation assay; type: biochemical; conditions: peptides at 20 μM
T2 construct: substrate (Cx43-CT: amino acids 255 to 382); GST (N); made in house; host or cells: E. coli BL21 (Cx43 CT); PKC-ε purchased (Life, 37717L)
Description: PKC assay conditions were used to evaluate the PKC-ε phosphorylation of Cx43-CT substrate at Ser368 as we have described previously, with modifications 11. 400 ng/ml […] (Life, 37717L, Carlsbad, CA) was pre-diluted in enzyme dilution buffer (10 mM HEPES pH7.4, 0.01% CHAPS and 5 mM DTT) and assayed in 20 mM HEPES pH7.4, 10 mM/L MgCl2, 0.1 mM EGTA, 1× lipid mix (200 μg/ml phosphatidylserine (Avanti Polar Lipids 840032C),^20 μg/ml Diacylglycerol (Avanti Polar Lipids), 1 mM HEPES pH7.4, 0.03% CHAPS), 500 µM ATP (Sigma, A6419) and 14 μg/ml Cx43-CT substrate. Kinase assay buffer was supplemented with peptides to produce final concentrations of the reaction constituents, as indicated in figure legends. The mixture was incubated at 37° C. for 12 minutes and quenched by addition of LDS sample loading buffer (Bio Rad, 1610791). “XT sample buffer” is what was shown on the product label, whereas the component is similar as regular LDS buffer, containing about 5-10% lithium dodecyl sulphate. The reaction was Western blotted for pS368 Cx43 using the Phospho-Connexin43 (Ser368) antibody from Cell Signaling. Proteins were eluted off by stripping buffer (Millipore 2504) and re-probed for total Cx43 using the Sigma anti-rabbit antibody. Percent phosphorylation (% P) was quantified using Equation 1 and normalized with control group (PKC+, no peptide added).

adult mouse hearts = assay: Langendorff ischemia-reperfusion (I/R) injury, LV contractility; conditions: for recovery of LV contractile performance during reperfusion: pre-ischemic 20-minute peptide infusion, 20 min ischemia, 40 min reperfusion
Description: Male, 3-month-old, body weight 25±5 g C57BL/6 mice were used for this study and obtained from Charles River. Animals were randomly assigned to experimental groups and Left ventricular (LV) function was measured and myocardial ischemia-reperfusion injury (I/R) was induced as previously described^23. Briefly, 15 minutes after the injection of heparin at a dose of 200U/10 g body weight, the mouse was anesthetized by inhalation of isoflurane vapor and subjected to cervical dislocation upon the cessation of respiration. Thoracotomy was immediately performed and the heart excised. The heart was arrested in ice-cold Krebs-Henseleit (KH) buffer (in mM: 25 NaHCO3, 0.5 EDTA, 5.3 KCl, 1.2 MgSO4, 0.5 pyruvate, 118 NaCl, 10 glucose, 2.5 CaCl2). The aorta was isolated and cannulated in a Langendorff perfusion system. The heart was then perfused at a constant pressure of 75 mmHg with KH buffer, which was continually bubbled with 5% CO2/95% O2 at 37° C. Effluent from the Thebesian veins was drained by a thin polyethylene tube (PE-10) pierced through the apex of the LV. A water-filled balloon made of polyvinylchloride film was inserted in the LV and connected to a blood pressure transducer (Harvard Apparatus, 733866, MA). After a 30-minute stabilization period, a balloon volume (BV) generating an LV end-diastolic-pressure (EDP) of 0 mmHg, was determined for the heart. The BV was then increased stepwise up through 1, 2, 5, 8, 10, 12, 15, 18, 20, 25, 30 μl increments of 1-5 μl and contractile performance were recorded for 10 seconds at each step. The indexes of cardiac function were amplified by a Transducer Amplifier Module (Harvard Apparatus, 730065, MA). Data was recorded and analyzed using PowerLab 4/35 (ADInstruments, PL3504, CO) and LabChart V7 (ADInstruments, CO). The BV was then adjusted to set EDP at about 8-10 mmHg and held constant during the ensuing steps of the protocol. Baseline function (determined by EDP at about 8-10 mmHg) was recorded for 5 minutes. The perfused beating heart were then treated with freshly prepared peptide stocks (0.2 mM), which were infused using syringe pump (Kent Sci, CT) into the perfusion buffer in a mixing chamber above the heart at 5% of coronary flow rate, to deliver final concentrations of 10-50 μM or equivalent vehicle for 20 minutes. At the end of the peptide infusion period hearts were subjected to global, no-flow normothermic ischemia by turning off the perfusion flow for 20 min, followed by a reperfusion phase for 40 min. BV was retaken through the stepwise sequence of 1-5 μl increments between 1 and 30 μl, with contractile performance again being recorded for 10 seconds at each step. Cardiac LV function was recorded throughout the procedure. In the case of post-ischemic treatment with alpha CT11 peptide, peptide infusion was begun at the initiation of the reperfusion phase, continued for 20 minutes and then contractile function by BV increments was taken as per the other hearts. A set of hearts were freeze-clamped immediately after peptide infusion for Western blotting. The protocol is illustrated in FIG. 9.

T2 sequence (P08050 255-382): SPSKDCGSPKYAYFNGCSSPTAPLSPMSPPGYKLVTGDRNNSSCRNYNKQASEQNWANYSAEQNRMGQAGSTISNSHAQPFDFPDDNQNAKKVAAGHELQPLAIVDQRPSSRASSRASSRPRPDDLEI

Sequence | PDZ2 melt temperature (Tm) (ZO-1 PDZ2) | Cx43 S368 phosphorylation [1] | recovery of LV contractile performance during reperfusion (adult mouse hearts) | PDZ2 melt temperature (Tm) (ZO-1 PDZ2; listed as M3) | ability to induce S368 phosphorylation ([1]; greater than PKC ε+plus control, M1 AALAI or M4) | recovery of LV function (adult mouse hearts; 20-minute peptide infusion at initiation of reperfusion (post-ischemic)) | cardiac muscle loss (adult mouse hearts; ex vivo I/R injury)
RQPKIWFPNRRKPWKK RPRPAALAI (RQPKIWFPNRRKPWKKRPRPAALAI) [M1 AALAI] | did not alter the melt temperature of PDZ2 | neither M1 AALAI (SEQ ID NO: 134), M2 AALEI (SEQ ID NO: 135) nor M3 DDLAI (SEQ ID NO: 136) increased Cx43 S368 phosphorylation | no ability to improve recovery |  |  |  | 
RQPKIWFPNRRKPWKKRPRPDDLAI [M3 DDLAI] | evidence of significant interaction with its ZO-1-binding domain | neither M1 AALAI (SEQ ID NO: 134), M2 AALEI (SEQ ID NO: 135) nor M3 DDLAI (SEQ ID NO: 136) increased Cx43 S368 phosphorylation | no ability to improve recovery | significantly increase the Tm of |  |  | 
RQPKIWFPNRRKPWKKRPRPDDLE [alpha CT1-I] | PDZ2 interaction incompetent | significant increase in PKC ε-mediated phosphorylation of Cx43 CT | significant functional recovery after I/R injury |  |  |  | 
RQPKIWFPNRRKPWKKRPRPDDLEI [alpha CT1] | significantly increase the Tm of; also recorded: increased the melt temperature of PDZ2 in a dose-dependent manner |  | notable recovery of LV function during reperfusion; also recorded: significant functional recovery after I/R injury |  | about 3 fold | did not result in significant recovery of LV function | reduce cardiac muscle loss by more than half
